According to the supplement of paper PMC10065799, “High-throughput profiling of sequence recognition by tyrosine kinases and SH2 domains using bacterial peptide display” (eLife, 2023):

How the values were obtained:
AncSZ = test: phosphorylation enrichment, bacterial display (enrichment ratio); higher = better substrate or ligand; peptides without Tyr show the background
EPHB1 = EPHB1 (UniProt P54762); test: as above
EPHB2 = EPHB2 (UniProt P29323); test: as above
FGFR1 = FGFR1 (UniProt P11362); test: as above
Chain of FGFR1 (P11362 whole entry, looked up): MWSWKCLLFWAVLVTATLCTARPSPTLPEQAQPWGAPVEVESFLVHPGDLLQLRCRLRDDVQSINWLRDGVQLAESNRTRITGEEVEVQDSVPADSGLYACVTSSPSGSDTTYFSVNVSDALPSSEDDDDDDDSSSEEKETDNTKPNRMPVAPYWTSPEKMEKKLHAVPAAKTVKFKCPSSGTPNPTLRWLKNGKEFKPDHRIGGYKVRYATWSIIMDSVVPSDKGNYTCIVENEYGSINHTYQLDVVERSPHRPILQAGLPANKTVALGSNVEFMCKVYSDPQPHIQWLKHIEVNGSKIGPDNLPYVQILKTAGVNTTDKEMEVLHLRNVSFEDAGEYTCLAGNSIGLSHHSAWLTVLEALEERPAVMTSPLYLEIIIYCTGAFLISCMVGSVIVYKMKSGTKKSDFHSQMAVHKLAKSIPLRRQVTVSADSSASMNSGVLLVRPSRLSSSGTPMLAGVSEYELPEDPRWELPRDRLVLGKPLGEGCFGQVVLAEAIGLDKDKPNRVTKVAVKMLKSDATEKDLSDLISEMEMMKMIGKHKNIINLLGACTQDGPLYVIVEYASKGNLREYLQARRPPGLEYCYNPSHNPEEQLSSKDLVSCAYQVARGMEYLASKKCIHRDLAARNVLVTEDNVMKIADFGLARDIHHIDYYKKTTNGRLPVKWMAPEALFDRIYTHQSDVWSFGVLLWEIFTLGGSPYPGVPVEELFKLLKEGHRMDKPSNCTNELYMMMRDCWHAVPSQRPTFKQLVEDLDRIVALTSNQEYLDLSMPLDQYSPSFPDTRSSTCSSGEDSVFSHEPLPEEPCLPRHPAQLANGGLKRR

FGFR3 = FGFR3 (UniProt P22607); test: as above
Chain of FGFR3 (P22607 whole entry, looked up): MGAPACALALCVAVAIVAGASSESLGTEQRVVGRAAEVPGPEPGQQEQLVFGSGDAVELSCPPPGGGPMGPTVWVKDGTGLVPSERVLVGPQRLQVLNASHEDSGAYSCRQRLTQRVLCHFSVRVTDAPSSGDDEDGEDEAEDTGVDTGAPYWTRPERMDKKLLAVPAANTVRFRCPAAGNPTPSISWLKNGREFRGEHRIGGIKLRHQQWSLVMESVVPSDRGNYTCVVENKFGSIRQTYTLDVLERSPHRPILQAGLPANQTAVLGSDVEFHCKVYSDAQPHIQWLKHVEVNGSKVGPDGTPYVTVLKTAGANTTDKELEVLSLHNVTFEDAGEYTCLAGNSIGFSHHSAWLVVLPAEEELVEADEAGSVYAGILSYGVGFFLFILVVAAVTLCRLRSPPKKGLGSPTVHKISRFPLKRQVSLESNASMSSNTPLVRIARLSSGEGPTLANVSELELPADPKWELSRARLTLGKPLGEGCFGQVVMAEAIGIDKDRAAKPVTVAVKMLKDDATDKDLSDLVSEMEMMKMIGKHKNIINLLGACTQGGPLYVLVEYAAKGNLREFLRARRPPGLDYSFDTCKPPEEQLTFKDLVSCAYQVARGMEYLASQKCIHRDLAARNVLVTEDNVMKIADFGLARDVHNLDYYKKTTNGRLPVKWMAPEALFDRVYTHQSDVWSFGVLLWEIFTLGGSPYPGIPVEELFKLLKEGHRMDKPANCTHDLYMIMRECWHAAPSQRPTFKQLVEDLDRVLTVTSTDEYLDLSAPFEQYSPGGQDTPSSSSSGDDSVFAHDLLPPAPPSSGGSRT

Fer (mouse) = test: as above
Fes = Fes (UniProt P07332); test: as above
Fyn = Fyn (UniProt P06241); test: as above
Chain of Fyn (P06241 whole entry, looked up): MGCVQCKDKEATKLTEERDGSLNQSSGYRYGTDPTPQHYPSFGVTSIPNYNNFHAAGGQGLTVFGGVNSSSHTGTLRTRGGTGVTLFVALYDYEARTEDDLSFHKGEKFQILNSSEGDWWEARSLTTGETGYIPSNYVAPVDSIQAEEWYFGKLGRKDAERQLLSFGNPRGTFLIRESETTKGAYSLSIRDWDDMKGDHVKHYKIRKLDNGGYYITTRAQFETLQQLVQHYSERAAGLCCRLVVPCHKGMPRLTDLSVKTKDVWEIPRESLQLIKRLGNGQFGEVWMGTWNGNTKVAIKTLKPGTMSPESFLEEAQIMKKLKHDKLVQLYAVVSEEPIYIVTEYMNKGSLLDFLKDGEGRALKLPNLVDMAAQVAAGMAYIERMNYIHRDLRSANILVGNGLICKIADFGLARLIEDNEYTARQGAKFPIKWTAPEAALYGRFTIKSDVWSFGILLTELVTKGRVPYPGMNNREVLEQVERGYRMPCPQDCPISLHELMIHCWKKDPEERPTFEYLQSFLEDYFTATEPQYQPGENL

Hck = Hck (UniProt P08631); test: as above
Jak2 = Jak2 (UniProt O60674); test: as above
Chain of Jak2 (O60674 whole entry, looked up): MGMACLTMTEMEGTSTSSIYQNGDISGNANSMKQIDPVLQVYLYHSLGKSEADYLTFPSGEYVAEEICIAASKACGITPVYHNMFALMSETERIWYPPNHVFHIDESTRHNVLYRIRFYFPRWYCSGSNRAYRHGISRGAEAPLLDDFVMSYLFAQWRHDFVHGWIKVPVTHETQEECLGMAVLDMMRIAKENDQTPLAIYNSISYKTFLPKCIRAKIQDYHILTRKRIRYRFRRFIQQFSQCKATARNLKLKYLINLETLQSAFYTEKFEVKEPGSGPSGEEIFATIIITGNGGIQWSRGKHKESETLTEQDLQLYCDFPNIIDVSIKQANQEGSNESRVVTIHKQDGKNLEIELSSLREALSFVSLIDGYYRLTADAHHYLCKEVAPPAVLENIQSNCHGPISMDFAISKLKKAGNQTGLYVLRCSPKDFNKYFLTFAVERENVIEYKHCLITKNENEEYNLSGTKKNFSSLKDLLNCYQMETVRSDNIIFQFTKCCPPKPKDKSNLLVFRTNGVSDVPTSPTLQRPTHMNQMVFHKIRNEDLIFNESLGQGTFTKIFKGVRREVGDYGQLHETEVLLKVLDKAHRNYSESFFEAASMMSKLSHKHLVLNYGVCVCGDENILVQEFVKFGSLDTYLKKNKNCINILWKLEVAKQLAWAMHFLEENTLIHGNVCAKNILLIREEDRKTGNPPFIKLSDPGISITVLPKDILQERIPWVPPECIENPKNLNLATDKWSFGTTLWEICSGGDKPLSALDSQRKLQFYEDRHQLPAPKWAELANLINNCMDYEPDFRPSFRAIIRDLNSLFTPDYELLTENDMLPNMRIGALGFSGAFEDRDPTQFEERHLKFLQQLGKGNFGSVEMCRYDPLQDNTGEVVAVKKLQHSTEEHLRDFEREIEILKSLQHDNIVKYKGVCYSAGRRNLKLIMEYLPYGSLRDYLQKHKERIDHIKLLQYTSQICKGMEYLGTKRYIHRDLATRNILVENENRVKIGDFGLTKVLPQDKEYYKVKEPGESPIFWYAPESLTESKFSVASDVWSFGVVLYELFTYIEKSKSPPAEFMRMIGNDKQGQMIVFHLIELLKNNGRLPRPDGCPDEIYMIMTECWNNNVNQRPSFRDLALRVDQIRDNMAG

MERTK = MERTK (UniProt Q12866); test: as above
c-Abl (mouse) = test: as above
c-Src = test: as above
Grb2 SH2 = Grb2 SH2 (UniProt P62993); test: SH2 binding enrichment of the phosphorylated peptide, bacterial display (enrichment ratio); higher = better substrate or ligand; peptides without Tyr show the background
Chain of Grb2 SH2 (P62993 whole entry, looked up): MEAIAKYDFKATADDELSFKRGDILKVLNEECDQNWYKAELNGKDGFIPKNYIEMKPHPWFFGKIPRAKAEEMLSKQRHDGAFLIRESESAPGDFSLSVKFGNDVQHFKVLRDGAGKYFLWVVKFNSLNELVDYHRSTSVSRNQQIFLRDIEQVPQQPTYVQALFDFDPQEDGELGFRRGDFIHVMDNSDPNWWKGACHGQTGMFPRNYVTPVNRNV

SHP2-C SH2 = test: as above
c-Src SH2 = test: as above
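Wherever SH2 binding enrichment of the phosphorylated peptide, bacterial display is given: peptide library displayed on the E. coli surface as eCPX fusions, selected cells deep-sequenced, score is each peptide's frequency after selection divided by its frequency in the input.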
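Wherever phosphorylation enrichment, bacterial display is given: 11-residue human phosphosite peptides and single-mutation variants displayed on the E. coli surface, counted by deep sequencing, each peptide's frequency after selection divided by its frequency in the unselected input library; frequency after pTyr selection over input frequency; kinase dosed for 20-30% of maximal phosphorylation in three min.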

Chain of EPHB2 (P29323 whole entry, looked up): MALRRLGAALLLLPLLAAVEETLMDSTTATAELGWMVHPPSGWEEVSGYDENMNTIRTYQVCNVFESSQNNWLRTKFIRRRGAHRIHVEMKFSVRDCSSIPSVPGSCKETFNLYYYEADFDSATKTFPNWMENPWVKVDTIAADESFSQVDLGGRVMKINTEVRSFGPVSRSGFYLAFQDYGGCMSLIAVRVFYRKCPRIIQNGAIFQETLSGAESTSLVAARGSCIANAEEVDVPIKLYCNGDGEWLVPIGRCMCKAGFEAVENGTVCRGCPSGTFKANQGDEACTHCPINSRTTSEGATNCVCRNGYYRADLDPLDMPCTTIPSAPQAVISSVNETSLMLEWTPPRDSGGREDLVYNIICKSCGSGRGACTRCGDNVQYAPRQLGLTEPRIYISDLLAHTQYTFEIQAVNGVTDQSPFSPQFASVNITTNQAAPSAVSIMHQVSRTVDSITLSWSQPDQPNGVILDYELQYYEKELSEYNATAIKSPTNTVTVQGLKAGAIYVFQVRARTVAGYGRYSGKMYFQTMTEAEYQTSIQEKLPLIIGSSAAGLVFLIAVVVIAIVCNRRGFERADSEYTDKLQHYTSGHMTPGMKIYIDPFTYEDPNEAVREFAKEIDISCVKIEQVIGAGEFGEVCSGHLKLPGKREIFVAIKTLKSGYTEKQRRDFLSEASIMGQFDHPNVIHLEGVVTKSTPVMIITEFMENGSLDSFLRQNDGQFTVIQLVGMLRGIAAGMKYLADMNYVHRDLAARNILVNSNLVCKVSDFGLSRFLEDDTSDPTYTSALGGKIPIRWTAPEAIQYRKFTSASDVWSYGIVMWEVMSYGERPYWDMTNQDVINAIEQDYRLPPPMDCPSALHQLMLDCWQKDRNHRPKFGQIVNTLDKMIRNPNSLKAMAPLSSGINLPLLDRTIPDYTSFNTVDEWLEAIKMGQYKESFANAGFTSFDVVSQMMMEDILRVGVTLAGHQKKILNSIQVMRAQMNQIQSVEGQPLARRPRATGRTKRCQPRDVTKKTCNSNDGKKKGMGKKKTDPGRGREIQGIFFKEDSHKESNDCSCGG

Sequence	phosphorylation enrichment (AncSZ)	phosphorylation enrichment (EPHB1)	phosphorylation enrichment (EPHB2)	phosphorylation enrichment (FGFR1)	phosphorylation enrichment (FGFR3)	phosphorylation enrichment (Fer (mouse))	phosphorylation enrichment (Fes)	phosphorylation enrichment (Fyn)	phosphorylation enrichment (Hck)	phosphorylation enrichment (Jak2)	phosphorylation enrichment (MERTK)	phosphorylation enrichment (c-Abl (mouse))	phosphorylation enrichment (c-Src)	SH2 binding enrichment (Grb2 SH2)	SH2 binding enrichment (SHP2-C SH2)	SH2 binding enrichment (c-Src SH2)
DYTEAYNSKIK [CLK1_Y305_P307S]	0.897	0.446	0.449	0.514	0.585	0.377	0.969	0.339	0.382	0.965	0.454	0.584	0.492	0.587	0.582	1
EALSLYTKLMN [STAM_Y371]	1.39	0.615	0.639	0.391	0.856	0.509	1.48	0.402	0.505	1.49	0.411	0.832	0.551	0.713	1.41	1.02
EATKGHLDDPT [G6PD_Y322_Y322H]	0.851	0.643	0.488	0.467	0.664	0.55	1.04	0.584	0.496	0.856	0.448	0.821	0.453	0.815	0.6	0.598
EATKVYLDDPT [G6PD_Y322_G321V]	0.852	0.482	0.558	0.428	0.656	0.451	0.967	0.444	0.458	0.803	0.385	0.656	0.357	0.837	0.746	0.534
ECKHLYSRKEG [PTPN11_Y263_L261H]	0.451	0.406	0.285	0.463	0.397	0.4	0.579	0.407	0.329	0.419	0.388	0.458	0.388	0.995	0.711	0.717
EDDPEYMRLRN [ADD2_Y31]	1.2	0.674	0.594	0.785	0.887	0.589	1.17	0.601	0.724	1.12	0.414	0.823	0.509	0.838	0.587	0.506
EDEGLYMVRVP [MYOM3_Y343]	1.58	1.74	1.71	0.56	0.736	1.89	1.43	3.03	4.63	1.24	1.79	0.812	3.41	0.776	0.628	0.472
EDKFMYSEFPQ [PTEN_Y240_F241S]	1.51	0.771	1.05	1.49	1.45	0.734	1.21	1.25	2.07	1.14	2.02	1.03	2.91	0.951	0.739	0.542
EEGRVYVFHLS [ITGAE_Y549_R552H_YF]	1.18	0.672	0.573	0.557	0.756	0.648	1.25	0.512	0.46	0.958	0.48	0.825	0.522	0.888	0.567	0.482
EEGRVYVFRLS [ITGAE_Y549_YF]	1.13	0.606	0.605	0.508	0.836	0.533	1.37	0.509	0.617	1.14	0.475	0.812	0.625	1.05	0.806	0.665
EEHIPCTHMNG [INSR_Y1361_Y1361C]	0.916	0.581	0.597	0.592	0.632	0.612	0.867	0.436	0.435	1.03	0.552	0.865	0.497	0.709	0.7	0.649
EEKSCYILHSS [PATJ_Y783_E780K]	1.08	0.669	0.647	0.755	0.704	0.622	1.22	0.753	0.651	0.744	0.449	0.779	0.514	0.805	0.893	0.628
EEQFFYEKAIL [BCCIP_Y257_E254Q]	1.11	0.434	0.48	0.442	0.588	3.96	0.999	0.466	0.654	0.828	0.502	0.748	0.608	1.04	0.795	0.53
EFENSYIFDIN [GAB1_Y83]	1.25	0.435	0.58	0.478	0.695	0.489	1.16	0.519	0.488	1.16	0.419	0.501	0.432	0.82	0.854	0.581
EFFDGYWGFSV [ITGA2B_Y265_YF]	1.43	0.633	0.58	6.3	4.7	0.54	1.15	3.98	3.31	8.01	1.14	1.53	5.54	0.705	0.634	0.657
EFFENYIEELK [PARP4_Y218_F215Y_YF]	1.3	0.617	0.669	0.488	0.744	0.532	1.35	0.421	0.533	1.41	0.425	0.869	0.501	0.941	0.663	0.502
